Reference: patent US9144594B2, “Cathepsin L mediated diseases and associated methods and products” (University of Miami, priority 2005, dated 2015)

Assays:
[1] = test system: dynamin-dynamin interactions; assay: FLIM analysis of dynamin-dynamin interactions (self-assembly) in podocytes; format: cell-based, mouse; details: in ps
Procedure: In one embodiment the cell-based assay to monitor dynamin-dynamin interactions is performed on a cultured mouse podocyte cell line and the readout of dynamin self-assembly using fluorescence lifetime imaging microscopy (FLIM). FLIM is based on the fluorescence resonance energy transfer (FRET) between the donor and acceptor that shortens the lifetime of the donor if the acceptor distance is within ≈100 Å (10 nm). […] The assay is based on overexpressing dynamin in podocytes, and subsequently staining fixed cells with monoclonal anti-dynamin antibodies that have been conjugated with donor or acceptor florophores. In one embodiment of the invention, Alexa-488 is used as the donor florophore and Alexa-568 is used as the acceptor florophore. In yet another embodiment the donor florophore is dynamin conjugated enhanced-cyan fluorescence protein (ECFP) and the acceptor is dynamin conjugated enhanced yellow-fluorescence protein (EYFP). It will be appreciated by the person of ordinary skill in the art that numerous combinations of FRET donor and acceptors can be used, which are readily available and known. In one embodiment, the FLIM assay is carried out in COS cells and the donor can be selected from the list consisting of: ECFP-WT, ECFP-1690K, ECFP-K44A, ECFP-K694A, and the -acceptor can be selected from the list consisting of: EYFP, EYFP-WT, EYFP-K44A, EYFP-1690K, EYFP-K694A. In yet another embodiment the FLIM assay is performed in podocytes and the donor is GTPase-Alexa488 and the acceptor is selected from the list consisting of: DAM-Alexa568, GTPase-Alexa568, and Hudyl-Alexa568. Cells are stained by mixing both donor and acceptor florophores in equal amounts, and examining the spatially-restricted lifetime shortening in cells detects the localization of dynamin-dynamin interactions in cells. Since dynamin-dynamin interactions are vital for the function of the podocyte, it will be appreciated by the person of ordinary skill in the art that this assay can now be used to screen peptides, small molecules or drugs which can affect these molecular interactions. For example such molecules are cytocholasin D, jasplakinolide, colchisine, dynK44A, dynK694A, dynWT, dynI690K, dynR725A (SEQ ID NO.4), dynL356Q, G358V, (SEQ ID NO.3) any combination thereof, etc.
In order to test the hypothesis that self-assembly of dynamin was protecting its cathepsin L processing in cultured podocytes, dynamin self-assembly in live cells was examined using fluorescence lifetime imaging microscopy (FLIM). FLIM is based on the fluorescence resonance energy transfer (FRET) between the donor and the acceptor that shortens the lifetime of the donor if the acceptor distance is within ≈100 Å (10 nm). […] A FLIM-assay was developed that specifically detects dynamin self-assembly into the higher order structures in podocytes. The assay is based on overexpressing dynamin in podocytes, and subsequently staining fixed cells with monoclonal anti-dynamin antibodies that have been conjugated with either Alexa-488 (donor florophore) or Alexa-568 (acceptor florophore). Cells are stained by mixing both florophores in equal amounts, and examining lifetime of Alexa-488. […] Importantly, FRET only occurred in the vicinity of the membrane. […] Thus, both dominant activating mutants, dynK694A and dynR725A, are impaired for assembly into a supramolecular structures in podocytes under normal conditions. […] Loss of FRET measured FLIM correlates with the loss of p40 proteolytic fragment in cultured podocytes. And presence of p40 in cells expressing dynR725A under normal conditions correlates with the lack of dynR725A assembly detected by FLIM. The opposite is true for the dynWT; lack of p40 under control conditions when FLIM is present, and appearance of the p40 upon LPS treatment with no measurable FRET. […] Finally, proteolytic processing of dynamin after LPS treatment is also observed in vivo. […]

podocytes = assay: Rhodamine-transferrin uptake (endocytosis) in podocytes; format: cell-based, mouse; details: overexpression in podocytes
Procedure: Since dynamin is known to play a major role in regulation of clathrin-mediated endocytosis, it appeared possible that the observed actin phenotypes as described above were indirect consequence of changes in endocytosis. […] While LPS treatment of cells overexpressing dynWT had no effect on endocytosis of rhodamine-transferrin (FIG. 1D), it did induce cell motility and changes in actin cytoskeleton.
Conditionally immortalized mouse podocyte cell lines were grown as described previously (Mundel et al., Exp Cell Res 236; 248-258; (1997)). Dynamin antibodies: Anti-dynamin (hudy 1) monoclonal antibody was purchased from Upstate Technology (Lake Placid, N.Y.); mouse anti-dyn1 monoclonal antibody (MAB 5402) was from Chemicon (Temecula, Calif.); mouse anti-dyn1 monoclonal antibody (VAM-SVO41) was from StressGene (Victoria, Canada). The rabbit antiserum against mouse CatL was used as described (Ishidoh and Kominami, 1994). For immunogold and immunocytochemistry analysis of CatL, we used a rabbit polyclonal antibody against CatL as described before (Ahn et al., Traffic 3, 147-159 (2002)). CatL −/− fibroblasts were maintained as described previously (Hsieh et al., J Immunol 168, 2618-2625 (2002)). Stable CatL knock-down cell lines were generated with a vector-based siRNA directed against CatL (target sequence 5′-GTGGACTGTTCTCACGCT-3; SEQ ID NO.32). Quantitative PCR was performed on a Applied Biosystems 7300 Real-Time PCR System. Fold-expression changes were calculated using the comparative CT method for relative quantitation with the equation 2^−ΔΔCT. Protein expression levels for dynamin and CatL were calculated using densitometric analysis with Kodak imaging software. Statistical significance was assessed with the unpaired t-test with Welch's correction. Transfections with CatL constructs were performed using Lipofectamine 2000 (Invitrogen) following manufacturer's instructions. Immunocytochemical analysis of cultured podocytes was done as described (Reiser et al., J Biol Chem 279, 34827-34832 (2004)). Immunoperoxidase labeling of human tissue was done on formalin fixed kidney biopsies embedded in paraffin. Transmission electron microscopy (TEM) and immunoelectron microscopy (IEM) were performed as described (Regele et al., J Am Soc Nephrol 11, 403-412 (2000)). Subcellular fractionation of cultured cells was performed as described (Damke et al., J Cell Biol 127, 915-934 (1994)). Internalization of rhodamine-transferrin (R-Tfn) was performed using 20 μg/ml R-Tfn in PBS containing 1 mM CaCl2, 1 mM MgCl2, 5 mM glucose, and 0.2% BSA for 10 min at 37° C.

[2] = Table 1, donor GTPase-Alexa488, acceptor Hudy1-Alexa568, podocytes overexpressing the dynamin variant
[3] = Table 4, donor GTPase-a488, acceptor Hudy1-a568

Molecule	Mean Lifetime (γ1) [1, 2]	Mean Lifetime (γ1) ([1]; Table 4, donor GTPase-a488, acceptor GTPase-a568)	Mean Lifetime (γ1) [1, 3]	transferrin uptake (endocytosis), in words (podocytes)
dynWT: wild type dynamin overexpressed by adenovirus or delivered as dynamin 1 cDNA	2212 ± 65	2423 ± 46	2254 ± 60	did not enhance the overall transferring uptake
dynK44A: dominant-negative dynamin mutant that cannot bind GTP (protein, UniProt Q05193 1-864, looked up, variant K44A) Dynamin-1: MGNRGMEDLIPLVNRLQDAFSAIGQNADLDLPQIAVVGGQSAGASSVLENFVGRDFLPRGSGIVTRRPLVLQLVNATTEYAEFLHCKGKKFTDFEEVRLEIEAETDRVTGTNKGISPVPINLRVYSPHVLNLTLVDLPGMTKVPVGDQPPDIEFQIRDMLMQFVTKENCLILAVSPANSDLANSDALKVAKEVDPQGQRTIGVITKLDLMDEGTDARDVLENKLLPLRRGYIGVVNRSQKDIDGKKDITAALAAERKFFLSHPSYRHLADRMGTPYLQKVLNQQLTNHIRDTLPGLRNKLQSQLLSIEKEVEEYKNFRPDDPARKTKALLQMVQQFAVDFEKRIEGSGDQIDTYELSGGARINRIFHERFPFELVKMEFDEKELRREISYAIKNIHGIRTGLFTPDMAFETIVKKQVKKIREPCLKCVDMVISELISTVRQCTKKLQQYPRLREEMERIVTTHIREREGRTKEQVMLLIDIELAYMNTNHEDFIGFANAQQRSNQMNKKKTSGNQDEILVIRKGWLTINNIGIMKGGSKEYWFVLTAENLSWYKDDEEKEKKYMLSVDNLKLRDVEKGFMSSKHIFALFNTEQRNVYKDYRQLELACETQEEVDSWKASFLRAGVYPERVGDKEKASETEENGSDSFMHSMDPQLERQVETIRNLVDSYMAIVNKTVRDLMPKTIMHLMINNTKEFIFSELLANLYSCGDQNTLMEESAEQAQRRDEMLRMYHALKEALSIIGDINTTTVSTPMPPPVDDSWLQVQSVPAGRRSPTSSPTPQRRAPAVPPARPGSRGPAPGPPPAGSALGGAPPVPSRPGASPDPFGPPPQVPSRPNRAPPGVPSRSGQASPSRPESPRPPFDL	–	–	2515 ± 43	completely inhibited transferring uptake
dynR725A: dynamin mutant (SEQ ID NO.4) with impaired GTP hydrolysis capacity (protein, listed as Homo sapiens) MGNRGMEDLIPLVNRLQDAFSAIGQNADLDLPQIAVVGGQSAGKSSVLENFVGRDFLPRGSGIVTRRPLVLQLVNATTEYAEFLHCKGKKFTDFEEVRLEIEAETDRVTGTNKGISPVPINLRVYSPHVLNLTLVDLPGMTKVPVGDQPPDIEFQIRDMLMQFVTKENCLILAVSPANSDLANSDALKVAKEVDPQGQRTIGVITKLDLMDEGTDARDVLENKLLPLRRGYIGVVNRSQKDIDGKKDITAALAAERKFFLSHPSYRHLADRMGTPYLQKVLNQQLTNHIRDTLPGLRNKLQSQLLSIEKEVEEYKNFRPDDPARKTKALLQMVQQFAVDFEKRIEGSGDQIDTYELSGGARINRIFHERFPFELVKMEFDEKELRREISYAIKNIHGIRTGLFTPDMAFETIVKKQVKKIREPCLKCVDMVISELISTVRQCTKKLQQYPRLREEMERIVTTHIREREGRTKEQVMLLIDIELAYMNTNHEDFIGFANAQQRSNQMNKKKTSGNQDEILVIRKGWLTINNIGIMKGGSKEYWFVLTAENLSWYKDDEEKEKKYMLSVDNLKLRDVEKGFMSSKHIFALFNTEQRNVYKDYRQLELACETQEEVDSWKASFLRAGVYPERVGDKEKASETEENGSDSFMHSMDPQLERQVETIRNLVDSYMAIVNKTVRDLMPKTIMHLMINNTKEFIFSELLANLYSCGDQNTLMEESAEQAQRADEMLRMYHALKEALSIIGDINTTTVSTPMPPPVDDSWLQVQSVPAGRRSPTSSPTPQRRAPAVPPARPGSRGPAPGPPPAGSALGGAPPVPSRPGASPDPFGPPPQVPSRPNRAPPGVPSRSGQASPSRPESPRPPFDL	2408 ± 128	–	–	exhibited the wild-type levels of endocytosis
dynK694A: dominant activator dynamin mutant impaired in self-assembly (protein) MGNRGMEDLIPLVNRLQDAFSAIGQNADLDLPQIAVVGGQSAGKSSVLENFVGRDFLPRGSGIVTRRPLVLQLVNATTEYAEFLHCKGKKFTDFEEVRLEIEAETDRVTGTNKGISPVPINLRVYSPHVLNLTLVDLPGMTKVPVGDQPPDIEFQIRDMLMQFVTKENCLILAVSPANSDLANSDALKVAKEVDPQGQRTIGVITKLDLMDEGTDARDVLENKLLPLRRGYIGVVNRSQKDIDGKKDITAALAAERKFFLSHPSYRHLADRMGTPYLQKVLNQQLTNHIRDTLPGLRNKLQSQLLSIEKEVEEYKNFRPDDPARKTKALLQMVQQFAVDFEKRIEGSGDQIDTYELSGGARINRIFHERFPFELVKMEFDEKELRREISYAIKNIHGIRTGLFTPDMAFETIVKKQVKKIREPCLKCVDMVISELISTVRQCTKKLQQYPRLREEMERIVTTHIREREGRTKEQVMLLIDIELAYMNTNHEDFIGFANAQQRSNQMNKKKTSGNQDEILVIRKGWLTINNIGIMKGGSKEYWFVLTAENLSWYKDDEEKEKKYMLSVDNLKLRDVEKGFMSSKHIFALFNTEQRNVYKDYRQLELACETQEEVDSWKASFLRAGVYPERVGDKEKASETEENGSDSFMHSMDPQLERQVETIRNLVDSYMAIVNKTVRDLMPKTIMHLMINNTAEFIFSELLANLYSCGDQNTLMEESAEQAQRRDEMLRMYHALKEALSIIGDINTTTVSTPMPPPVDDSWLQVQSVPAGRRSPTSSPTPQRRAPAVPPARPGSRGPAPGPPPAGSALGGAPPVPSRPGASPDPFGPPPQVPSRPNRAPPGVPSRSGQASPSRPESPRPPFDL	–	–	2408 ± 40	lead to increase in transferring uptake
